According to PMC314469, “Protein Interaction Networks by Proteome Peptide Scanning” (PLoS Biology, 2004):

T1: Boi1 SH3 (BOI1_YEAST), P38041
T1 chain: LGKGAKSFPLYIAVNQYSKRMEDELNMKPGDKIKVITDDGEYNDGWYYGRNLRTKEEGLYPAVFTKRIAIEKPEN

T2: Yfr024 SH3 (LSB3_YEAST), P43603
T2 chain: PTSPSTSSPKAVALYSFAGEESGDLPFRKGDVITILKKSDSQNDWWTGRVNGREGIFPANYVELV

T3: Rvs167 SH3 (RV167_YEAST), P39743
T3 chain: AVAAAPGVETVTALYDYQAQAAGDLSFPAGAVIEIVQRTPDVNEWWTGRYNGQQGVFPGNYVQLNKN

T4: Yhr016c SH3 (YSC84_YEAST), P32793
T4 chain: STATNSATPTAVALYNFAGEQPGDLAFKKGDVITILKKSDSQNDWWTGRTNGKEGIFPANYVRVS

T5: Boi2 SH3 (BOI2_YEAST), P39969
T5 chain: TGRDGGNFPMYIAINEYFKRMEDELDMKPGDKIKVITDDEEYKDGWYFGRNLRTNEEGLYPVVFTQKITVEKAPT

B1: YDL113C 210-223 (peptide)
chain: TLIPPIPEKQSIKN
B2: YDL171C 572-585 (peptide)
chain: TNPPIDPIREANVM
B3: YPR171W 333-346 (peptide)
chain: TSKPSLPEKPQKLR
B4: YJL045W 461-474 (peptide)
chain: TLQPGLPHKPLASN
B5: YNL166C 314-327 (peptide)
chain: TRRPTNPFRVISVS
B6: YER068W 519-532 (peptide)
chain: TKTPTQPIRLQTVS
B7: YGL207W 463-476 (peptide)
chain: TKVPSKPDRNSKIL
B8: YOR367W 153-166 (peptide)
chain: TKKPRPPVKSKPKH
B9: YDL164C 384-397 (peptide)
chain: TLRPGIPLKPMLAK
B10: YMR042W 23-36 (peptide)
chain: TNEPTKPIRRLSTP
B11: YPL249C 279-292 (peptide)
chain: TSSPPLPPRQNVAT
B12: YDR239C 54-67 (peptide)
chain: TSAPDIPPRSPNRN
B13: YPR055W 308-321 (peptide)
chain: TQAPLAPSRNQENE
B14: YBR140C 1667-1680 (peptide)
chain: TNYPVNPEKHEMDK
B15: YGL181W 247-260 (peptide)
chain: TSTPPLPRRRATTS
B16: YBR284W 102-115 (peptide)
chain: TPPPVEPLKTKDLA
B17: YIR023W 846-859 (peptide)
chain: TPLPFAPNKSSKKT
B18: YGR097W 176-189 (peptide)
chain: TTAPRGPKKAQPAQ
B19: YHL007C 507-520 (peptide)
chain: THAPTTPNRTSPNR
B20: YIL152W 34-47 (peptide)
chain: TRRPHHPLKQQSTN
B21: YBR208C 872-885 (peptide)
chain: TPAPNLPEKTRLAL
B22: YKL148C 467-480 (peptide)
chain: TLQPGLPHKPLPSD

Tests used:
Test in all cases: SPOT array
[1] = molecular target: T1, Boi1 SH3 (BOI1_YEAST), P38041
[2] = molecular target: T2, Yfr024 SH3 (LSB3_YEAST), P43603
[3] = molecular target: T3, Rvs167 SH3 (RV167_YEAST), P39743
[4] = molecular target: T4, Yhr016c SH3 (YSC84_YEAST), P32793
[5] = molecular target: T5, Boi2 SH3 (BOI2_YEAST), P39969

| Binder | normalised SPOT signal, Boehringer light units (BLU); mean over the file's lines of this peptide [1] | normalised SPOT signal, Boehringer light units (BLU); mean over the file's lines of this peptide [2] | normalised SPOT signal, Boehringer light units (BLU); mean over the file's lines of this peptide [3] | normalised SPOT signal, Boehringer light units (BLU); mean over the file's lines of this peptide [4] | normalised SPOT signal, Boehringer light units (BLU); mean over the file's lines of this peptide [5] |
| --- | --- | --- | --- | --- | --- |
| B1 | 82.1 | 259 | 38 | 324 | 37.5 |
| B2 | 136 | 14.7 | 27.6 | 110 | 55.4 |
| B3 | 252 | 11600 | 63.1 | 319 | 19.2 |
| B4 | 91.4 | 3.9 | 16.3 | 86.1 | 62.6 |
| B5 | 34.6 | 1890 | 218 | 566 | 49 |
| B6 | 139 | 1360 | 104 | 234 | 60.2 |
| B7 | 152 | 4410 | 44 | 416 | 27.3 |
| B8 | 61.5 | 344 | 54.9 | 127 | 25.1 |
| B9 | 105 | 303 | 118 | 229 | 49.9 |
| B10 | 111 | 4980 | 46.4 | 1280 | 0 |
| B11 | 37.2 | 25300 | 16700 | 47000 | 30.4 |
| B12 | 65600 | 14500 | 26700 | 14800 | 35900 |
| B13 | 31.7 | 1200 | 38 | 624 | 4.1 |
| B14 | 82.1 | 0 | 62.1 | 136 | 32.3 |
| B15 | 16400 | 36200 | 55700 | 122000 | 1870 |
| B16 | 94.4 | 36.2 | 56.7 | 146 | 43.4 |
| B17 | 181 | 315 | 28.9 | 100 | 50.4 |
| B18 | 138 | 169 | 89.5 | 264 | 43.9 |
| B19 | 74.3 | 14600 | 552 | 4050 | 14.4 |
| B20 | 87.5 | 411 | 70.4 | 154 | 26.4 |
| B21 | 82.2 | 6030 | 65.7 | 221 | 38.3 |
| B22 | 82.6 | 295 | 74.3 | 352 | 53.3 |
